Values quoted from earlier work as cited in patent US11340238B2 (Biocon Limited, priority 2015, dated 2022).

Conditions: Type 1 Diabetes Mellitus patients on RHI therapy

In the case of recombinant Human insulin [RHI], the Cmax is listed as roughly 100 mU/L.
